Holding throughout (details): in vivo
The subject of data set [1] is midgut neuroendocrine tumors. Further details: species or system patients. An excerpt: For tumor dosimetry, baseline scintigraphy was used to select tumors that were easily delineated on imaging. Tumor doses were derived using the sphere model of OLINDA/EXM version 1.0 ([14]). The ^177Lu dose factor values were interpolated for each lesion on the basis of its mass.

Details of data set [2]: species or system patients. An excerpt: Safety data were collected as previously described ([5]).
Details of data set [3]: species or system patients. As for the experimental part:
Dosimetry assessments were performed using planar scintigraphy methodology routinely used at the time the study was conducted ([9],[10]). […] The geometric mean between the anterior and posterior images at each time point was calculated ([11]). Source organ radioactivity was determined at each time point, and cumulative activities were calculated ([12]). Absorbed dose values in target organs were calculated using time-integrated activity coefficients ([13]) of source organs using OLINDA/EXM version 1.0 (Hermes Medical Solutions) ([14]). A blood-based model was used to derive the cumulative activity in the red marrow and the corresponding absorbed dose ([15],[16]).
The source holds these as a separate data set.

In data set [4] the test system is midgut neuroendocrine tumors. Further details: species or system patients. As for the experimental part:
The best tumor size change from baseline was assessed in individual lesions with dosimetric estimations. Tumor size was assessed by CT using 2 dimensions (longest [L] and perpendicular [W]) for each tumor per time point. Size change was based on the ratio of tumor area (L × W) at measured times (Tt) to tumor area at baseline (Tbl) and presented as a percentage where percentage tumor size change was ((Tt/Tbl) − 1) × 100%. Positive values indicate size growth, and negative values represent size reduction. Analyses were repeated using 1 dimension (short axis for lymph node lesions and long axis for other lesions). Tumor measurements were performed at 2–7 time points at 12-wk intervals until 72 wk after the first administration. […] However, the timings of dosimetry assessments were not the same for all lesions. Lesion uptake was assumed to be proportional to mass, resulting in a constant absorbed dose at all cycles for an equivalent injected activity. The cumulative absorbed dose was calculated for each target lesion. The correlation between tumor absorbed dose and effect was assessed by plotting the best percentage tumor size change from baseline versus the tumor cumulative absorbed dose.
This is another data set of the same source.

`C[C@@H](O)[C@H](NC(=O)[C@@H]1CSSC[C@H](NC(=O)[C@@H](Cc2ccccc2)NC(=O)CN2CCN(CC(=O)O)CCN(CC(=O)O)CCN(CC(=O)O)CC2)C(=O)N[C@@H](Cc2ccc(O)cc2)C(=O)N[C@H](Cc2c[nH]c3ccccc23)C(=O)N[C@@H](CCCCN)C(=O)N[C@@H]([C@@H](C)O)C(=O)N1)C(=O)O` [^177Lu-DOTATATE, [^177Lu]Lu-DOTATATE, metal not drawn]: in data set [1], the “Absorbed dose for four 7.4 GBq (29.6 GBq in total), Median (range)” value is reported as 134 (7–2,218) Gy; the “Absorbed dose per unit activity, Median (range)” value is 4.5 (0.2–74.9) Gy/GBq; the “Lesion activity at 160 h” value is recorded as “less than 0.01 % of injected activity”; the “Target lesions with cumulative absorbed dose of at least 50 Gy” value was 73.8%. Further, the “Target lesions with cumulative absorbed dose of at least 100 Gy” value in data set [1] is on record as 52.3%. For the same compound, in data set [1] (SD), the “Absorbed dose for four 7.4 GBq (29.6 GBq in total), Mean (SD)” value is recorded as 224 (313) Gy and the “Absorbed dose per unit activity, Mean (SD)” value is 7.6 (10.6) Gy/GBq. For the same compound, in data set [2], the “Acute hematologic toxicity grade” value is on record as “mild or moderate (grade 1 or 2)”, the “Patients with grade 4 lymphopenia during treatment (acute toxicity)” value stood at 20%, the “Patients with transient grade 3 leukopenia during treatment” value was determined as 10% and the Severe renal toxicity entry is recorded as “no severe renal toxicity was observed”. In addition, the “Overall effective half-life of the elimination phase” value in data set [3] (human) was in the range of 21 to 161 h. Also, in data set [3], the “Cumulative red marrow dose” value was found to be 3.2 Gy; the “Kidney doses in three substudy patients” value is 28-33 Gy; the “Kidney injected activity profile, peak” value is on record as “around 8%”. Moreover, in data set [4], the “Cumulative absorbed dose range of lesions with approximately 50 Gy or greater” value was 50–789 Gy and the “Lesions that received a cumulative absorbed dose of approximately 50 Gy or greater” value was found to be 73%.

The record behind these values is PMC11876735 (Journal of Nuclear Medicine, 2025).
